The EC50 is the concentration giving half of the maximal effect. Lower therefore signals an effect from little substance.

The target in assay [1] is BDBV GP (Bundibugyo virus (BDBV)). Nature of the assay: ELISA, purified mAb. In general terms: In an ELISA, binding on a coated surface is turned into a signal by an enzyme label.
Assay [2] shares this target. Nature of the assay: GP ELISA, purified mAb.

Chain of FVM09 (antibody) (VH): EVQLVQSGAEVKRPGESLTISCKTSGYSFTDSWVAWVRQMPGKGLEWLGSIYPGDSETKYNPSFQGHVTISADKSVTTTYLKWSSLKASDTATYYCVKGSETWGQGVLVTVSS
Chain of FVM09 (antibody) (V domain): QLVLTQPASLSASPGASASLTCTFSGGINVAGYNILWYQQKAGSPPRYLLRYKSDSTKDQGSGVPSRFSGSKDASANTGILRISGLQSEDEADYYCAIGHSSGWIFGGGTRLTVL

With FVM09 (antibody), the EC50 in assay [1] was less than 0.015 mg/L; in assay [2], 0.02 mg/L.

The values above are taken from patent US20170334973A1.
